Measured values from patent US20190077860A1 (EISAI R AND D MANAGEMENT, published 2019).
Substitutions are numbered along the chain they refer to.

T1: human EphA6 extracellular region-SEAP-His protein (human, UniProt Q9UF33 23-550)
T1 construct: extracellular domain; also called hEphA6-SEAP-His
T1 sequence (looked up): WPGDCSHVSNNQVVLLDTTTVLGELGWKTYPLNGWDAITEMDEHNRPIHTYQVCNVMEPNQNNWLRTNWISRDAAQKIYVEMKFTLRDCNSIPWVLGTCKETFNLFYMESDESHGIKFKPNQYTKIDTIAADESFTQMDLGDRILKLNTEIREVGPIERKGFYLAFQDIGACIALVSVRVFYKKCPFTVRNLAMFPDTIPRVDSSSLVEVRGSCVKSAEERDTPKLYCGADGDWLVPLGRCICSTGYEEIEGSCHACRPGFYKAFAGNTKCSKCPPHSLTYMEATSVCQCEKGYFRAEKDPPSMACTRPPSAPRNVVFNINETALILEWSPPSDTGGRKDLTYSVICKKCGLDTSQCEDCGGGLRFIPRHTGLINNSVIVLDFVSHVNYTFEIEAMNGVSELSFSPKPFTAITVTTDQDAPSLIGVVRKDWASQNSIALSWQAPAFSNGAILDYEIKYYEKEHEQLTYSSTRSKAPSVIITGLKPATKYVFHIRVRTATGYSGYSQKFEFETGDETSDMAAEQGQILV

T2: human EphA10 extracellular region-SEAP-His protein (human, UniProt Q5JZY3 34-565)
T2 construct: extracellular domain; also called hEphA10-SEAP-His
T2 sequence (looked up): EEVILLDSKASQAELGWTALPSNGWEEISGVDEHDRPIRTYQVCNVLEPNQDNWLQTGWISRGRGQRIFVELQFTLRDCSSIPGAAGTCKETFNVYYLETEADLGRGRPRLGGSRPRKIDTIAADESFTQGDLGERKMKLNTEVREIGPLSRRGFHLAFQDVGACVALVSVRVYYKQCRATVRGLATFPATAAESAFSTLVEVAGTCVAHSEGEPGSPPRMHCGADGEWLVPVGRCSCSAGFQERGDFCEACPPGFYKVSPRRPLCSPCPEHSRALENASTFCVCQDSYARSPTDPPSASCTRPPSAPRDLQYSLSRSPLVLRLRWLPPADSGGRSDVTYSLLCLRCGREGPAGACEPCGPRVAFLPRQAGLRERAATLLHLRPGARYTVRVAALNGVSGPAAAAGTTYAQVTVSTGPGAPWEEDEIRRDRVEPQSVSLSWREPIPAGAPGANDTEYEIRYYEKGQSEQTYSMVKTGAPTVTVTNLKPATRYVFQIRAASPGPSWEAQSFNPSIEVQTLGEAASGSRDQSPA

T3: human EphB2 extracellular region-SEAP-His protein (human, UniProt P29323 19-543)
T3 construct: extracellular domain; also called hEphB2-SEAP-His
T3 sequence (looked up): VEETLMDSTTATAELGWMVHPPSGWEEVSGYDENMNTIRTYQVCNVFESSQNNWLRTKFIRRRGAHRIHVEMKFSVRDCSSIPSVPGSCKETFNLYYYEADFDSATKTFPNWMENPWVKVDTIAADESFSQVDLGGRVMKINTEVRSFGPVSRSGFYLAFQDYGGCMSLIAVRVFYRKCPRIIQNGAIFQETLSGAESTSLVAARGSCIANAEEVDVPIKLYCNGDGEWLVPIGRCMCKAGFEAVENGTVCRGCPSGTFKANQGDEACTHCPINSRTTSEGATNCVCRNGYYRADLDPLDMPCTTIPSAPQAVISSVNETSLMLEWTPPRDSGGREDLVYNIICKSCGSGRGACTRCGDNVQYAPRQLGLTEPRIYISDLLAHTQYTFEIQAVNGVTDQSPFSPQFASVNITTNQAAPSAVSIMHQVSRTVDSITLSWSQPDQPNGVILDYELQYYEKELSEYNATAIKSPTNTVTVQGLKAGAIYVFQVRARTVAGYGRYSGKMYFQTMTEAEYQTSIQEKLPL

T4: human EphB6 extracellular region-SEAP-His protein (human, UniProt O15197 32-594)
T4 construct: extracellular domain; also called hEphB6-SEAP-His
T4 sequence (looked up): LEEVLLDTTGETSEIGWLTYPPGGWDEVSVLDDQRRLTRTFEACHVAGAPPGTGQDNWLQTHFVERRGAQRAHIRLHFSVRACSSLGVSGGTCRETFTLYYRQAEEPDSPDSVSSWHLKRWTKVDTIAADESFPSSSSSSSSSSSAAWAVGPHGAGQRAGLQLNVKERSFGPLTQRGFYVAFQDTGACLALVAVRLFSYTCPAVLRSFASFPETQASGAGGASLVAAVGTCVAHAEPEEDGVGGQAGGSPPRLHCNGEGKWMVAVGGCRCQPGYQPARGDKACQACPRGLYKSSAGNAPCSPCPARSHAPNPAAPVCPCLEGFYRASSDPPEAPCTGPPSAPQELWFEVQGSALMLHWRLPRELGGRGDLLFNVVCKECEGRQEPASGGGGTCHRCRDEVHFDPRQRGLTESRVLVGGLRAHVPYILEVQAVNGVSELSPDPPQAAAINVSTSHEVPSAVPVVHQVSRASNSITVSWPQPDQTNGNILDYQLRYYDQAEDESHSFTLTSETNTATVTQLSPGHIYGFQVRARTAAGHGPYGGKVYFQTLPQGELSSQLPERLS

B1: humanized antibody No. 90 (antibody, human IgG1, kappa)
heavy: QVQLVQSGSELKKPGASVKVSCKASGYTFTDYSMHWVRQAPGQGLEWMGWINTETGEPTYADDFKGRFVFSLDTSVSTAYLQISSLKAEDTAVYYCARIPLYYYGSRYWYFDVWGQGTTVTVSSASTKGPSVFPLAPSSKSTSGGTAALGCLVKDYFPEPVTVSWNSGALTSGVHTFPAVLQSSGLYSLSSVVTVPSSSLGTQTYICNVNHKPSNTKVDKRVEPKSCDKTHTCPPCPAPPAAAPSVFLFPPKPKDTLMISRTPEVTCVVVDVSHEDPEVQFNWYVDGVEVHNAKTKPREEQFNSTFRVVSVLTVVHQDWLNGKEYKCKVSNKGLPAPIEKTISKTKGQPREPQVYTLPPSREEMTKNQVSLTCLVKGFYPSDIAVEWESNGQPENNYKTTPPMLDSDGSFFLYSKLTVDKSRWQQGNVFSCSVMHEALHNHYTQKSLSLSPG
light: DIQMTQSPSSLSASVGDRVTITCRASENIYRNLAWYQQKPGKAPQLLLYAATNLADGVPSRFSGSGSGTDYTLTISSLQPEDFATYYCQHFWGTPWTFGQGTKVEIKRTVAAPSVFIFPPSDEQLKSGTASVVCLLNNFYPREAKVQWKVDNALQSGNSQESVTEQDSKDSTYSLSSTLTLSKADYEKHKVYACEVTHQGLSSPVTKSFNRGEC
notes: human Ig kappa; also called L1-6/HK1
B2: humanized antibody No. 140 (antibody, human IgG2)
heavy: QVQLVQSGSELKKPGASVKVSCKASGYTFTDYSMHWVRQAPGQGLKWMGWINTETGEPTYAQGFTGRFVFSLDTSVSTAYLQISSLKAEDTAVYYCARIPLYYYGSRYWYFDVWGQGTTVTVSSASTKGPSVFPLAPSSRSTSESTAALGCLVKDYFPEPVTVSWNSGALTSGVHTFPAVLQSSGLYSLSSVVTVPSSNFGTQTYTCNVDHKPSNTKVDKTVERKSCVECPPCPAPPAAAPSVFLFPPKPKDTLMISRTPEVTCVVVDVSHEDPEVQFNWYVDGVEVHNAKTKPREEQFNSTFRVVSVLTVVHQDWLNGKEYKCKVSNKGLPAPIEKTISKTKGQPREPQVYTLPPSREEMTKNQVSLTCLVKGFYPSDIAVEWESNGQPENNYKTTPPMLDSDGSFFLYSKLTVDKSRWQQGNVFSCSVMHEALHNHYTQKSLSLSPG
light: B1 light with Q45K, L48V
notes: human Ig kappa; also called L1-4/HA2
B3: humanized antibody No. 92 (antibody, human IgG1, kappa)
heavy: B1 heavy with V2I, E46K
light: B1 light
notes: human Ig kappa; also called L1-6/HK4
B4: humanized antibody No. 138 (antibody, human IgG2)
heavy: B2 heavy with V2I
light: B1 light with Q45K, L48V
notes: human Ig kappa; also called L1-4/HA4
B5: humanized antibody No. 91 (antibody, human IgG1, kappa)
heavy: B1 heavy with E46K
light: B1 light
notes: human Ig kappa; also called L1-6/HK2

Tests used:
Assay in all cases: ELISA
SEAP-His = SEAP-His (UniProt P05187 23-511)
[1] = molecular target: T5, human EphA2 extracellular region-SEAP-His protein (human, UniProt P29317 24-537)
T5 construct: extracellular domain; also called hEphA2-SEAP-His

[2] = molecular target: T1, human EphA6 extracellular …
[3] = molecular target: T2, human EphA10 extracellular …
[4] = molecular target: T3, human EphB2 extracellular …
[5] = molecular target: T4, human EphB6 extracellular …

Chain of SEAP-His (P05187 23-511): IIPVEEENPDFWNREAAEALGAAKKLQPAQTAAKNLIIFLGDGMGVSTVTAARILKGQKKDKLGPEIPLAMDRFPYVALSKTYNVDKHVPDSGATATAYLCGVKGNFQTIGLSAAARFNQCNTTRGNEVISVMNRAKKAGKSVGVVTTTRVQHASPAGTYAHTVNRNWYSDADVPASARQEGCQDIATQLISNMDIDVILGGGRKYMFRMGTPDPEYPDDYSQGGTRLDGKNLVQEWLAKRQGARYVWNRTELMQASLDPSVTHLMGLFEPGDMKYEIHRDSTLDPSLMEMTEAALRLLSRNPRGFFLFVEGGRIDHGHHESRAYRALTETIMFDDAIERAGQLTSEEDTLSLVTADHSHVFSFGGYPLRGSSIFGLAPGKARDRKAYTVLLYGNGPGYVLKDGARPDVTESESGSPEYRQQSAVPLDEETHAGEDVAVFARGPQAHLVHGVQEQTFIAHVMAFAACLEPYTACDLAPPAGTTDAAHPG
T5 sequence (P29317 24-537): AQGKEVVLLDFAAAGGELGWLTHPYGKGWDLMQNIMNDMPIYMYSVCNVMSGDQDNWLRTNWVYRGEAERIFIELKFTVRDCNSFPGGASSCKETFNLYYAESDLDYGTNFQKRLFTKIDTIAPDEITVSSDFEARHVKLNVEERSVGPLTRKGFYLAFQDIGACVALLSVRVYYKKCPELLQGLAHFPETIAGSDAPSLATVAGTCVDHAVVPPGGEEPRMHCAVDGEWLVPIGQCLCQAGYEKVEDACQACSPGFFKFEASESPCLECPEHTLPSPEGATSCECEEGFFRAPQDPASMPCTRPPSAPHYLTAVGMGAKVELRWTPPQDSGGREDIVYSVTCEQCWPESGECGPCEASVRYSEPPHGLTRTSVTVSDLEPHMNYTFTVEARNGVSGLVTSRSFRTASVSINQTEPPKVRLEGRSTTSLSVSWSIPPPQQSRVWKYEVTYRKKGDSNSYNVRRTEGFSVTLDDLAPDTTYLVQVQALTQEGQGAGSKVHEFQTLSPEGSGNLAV

| A450 as % of hEphA4-SEAP-His (SEAP-His) [%] | A450 as % of hEphA4-SEAP-His [1] [%] | A450 as % of hEphA4-SEAP-His [2] [%] | A450 as % of hEphA4-SEAP-His [3] [%] | A450 as % of hEphA4-SEAP-His [4] [%] | A450 as % of hEphA4-SEAP-His [5] [%] | Binder |
| --- | --- | --- | --- | --- | --- | --- |
| 5.2 | 5.2 | 7.6 | 5.1 | 5.9 | 5.2 | B1 |
| 5.4 | 5.3 | 10.8 | 5.2 | 5.3 | 5.2 | B2 |
| 6.5 | 6.9 | 9.6 | 6.6 | 6.6 | 6.5 | B3 |
| 5.1 | 5 | 10.2 | 5 | 5.2 | 5 | B4 |
| 6.4 | 6.1 | 8.8 | 8.5 | 7 | 6.3 | B5 |
